According to article PMC9018702:

B1: EAT1 promoter P1 probe (dsDNA)
DNA 1: GCGTATCGTGGTCATCTGTCTATTTTACATGCACTTGTAGCTGGATAAA
DNA 2: TTTATCCAGCTACAAGTGCATGTAAAATAGACAGATGACCACGATACGC
B2: EAT1 promoter P1 unlabeled competitor (dsDNA)
DNA 1: GCGTATCGTGGTCATCTGTCTATTTTACATGCACTTGTAGCTGGATAAA
DNA 2: TTTATCCAGCTACAAGTGCATGTAAAATAGACAGATGACCACGATACGC

Experiments:
[1] = target: T1, MBP-TDR (Oryza sativa (ORF cloned from ZH11), UniProt Q6YUS3 1-552); assay: EMSA; EMSA: 10 mM Tris-HCl pH 7.5, 50 mM KCl, 5 mM MgCl2, 1 mM DTT, 2.5% glycerol, 0.05% NP-40, 50 ng/uL poly(dI-dC), 10 fmol probe, 1 ug protein in 20 uL, room tempe
[2] = target: T1, MBP-TDR; assay: competition; 10-, 20-, 100-fold excess unlabeled probe eliminates shift; EMSA: 10 mM Tris-HCl pH 7.5, 50 mM KCl, 5 mM MgCl2, 1 mM DTT, 2.5% glycerol, 0.05% NP-40, 50 ng/uL poly(dI-dC), 10 fmol probe, 1 ug protein in 20 uL, room tempe

| Binder | binding result [1] | binding result [2] |
| --- | --- | --- |
| B1 | binds | – |
| B2 | – | binds |
